{
  "source": "paper PMC8897274",
  "about": "(Structure (London, England : 1993), 2021)",
  "binders": {"B1": {"name": "PCNA3 subunit of S. solfataricus PCNA (natural protein)", "chain": "MKVVYDDVRVLKDIIQALARLVDEAVLKFKQDSVELVALDRAHISLISVNLPREMFKEYDVNDEFKFGFNTQYLMKILKVAKRKEAIEIASESPDSVIINIIGSTNREFNVRNLEVSEQEIPEINLQFDISATISSDGFKSAISEVSTVTDNVVVEGHEDRILIKAEGESEVEVEFSKDTGGLQDLEFSKESKNSYSAEYLDDVLSLTKLSDYVKISFGNQKPLQLFFNMEGGGKVTYLLAPKV"}},
  "key": {"[1]": {"target": "T1, PCNA_(1–2-3) heterotrimer of S. solfataricus (S. solfataricus, UniProt P57766 1-249; Q97Z84 1-245; P57765 1-244)", "T1 sequence 1": "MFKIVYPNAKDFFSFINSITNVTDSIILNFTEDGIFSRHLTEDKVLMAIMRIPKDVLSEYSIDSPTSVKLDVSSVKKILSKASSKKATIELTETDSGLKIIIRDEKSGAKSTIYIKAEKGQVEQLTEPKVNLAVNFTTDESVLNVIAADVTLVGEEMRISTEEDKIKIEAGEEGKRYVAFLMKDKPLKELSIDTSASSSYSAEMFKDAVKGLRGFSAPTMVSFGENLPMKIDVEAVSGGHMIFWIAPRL", "T1 sequence 2": "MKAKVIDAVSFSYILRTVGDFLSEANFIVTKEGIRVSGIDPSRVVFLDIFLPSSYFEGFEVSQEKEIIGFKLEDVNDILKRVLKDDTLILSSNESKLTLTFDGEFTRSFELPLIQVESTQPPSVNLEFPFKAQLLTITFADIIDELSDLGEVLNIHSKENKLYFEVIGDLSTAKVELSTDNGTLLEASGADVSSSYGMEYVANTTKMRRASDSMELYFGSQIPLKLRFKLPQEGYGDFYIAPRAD", "T1 sequence 3": "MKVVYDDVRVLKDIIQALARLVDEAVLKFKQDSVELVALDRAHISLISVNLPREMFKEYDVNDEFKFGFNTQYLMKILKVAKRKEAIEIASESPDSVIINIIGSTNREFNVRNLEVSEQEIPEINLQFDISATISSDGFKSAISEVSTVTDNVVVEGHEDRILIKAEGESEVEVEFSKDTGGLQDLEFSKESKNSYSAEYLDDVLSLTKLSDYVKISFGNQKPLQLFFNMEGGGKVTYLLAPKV", "assay": "SEC"}, "[2]": {"target": "T2, DNA ligase from S. solfataricus (Lig), wild type (S. solfataricus, UniProt Q980T8 1-601)", "T2 sequence": "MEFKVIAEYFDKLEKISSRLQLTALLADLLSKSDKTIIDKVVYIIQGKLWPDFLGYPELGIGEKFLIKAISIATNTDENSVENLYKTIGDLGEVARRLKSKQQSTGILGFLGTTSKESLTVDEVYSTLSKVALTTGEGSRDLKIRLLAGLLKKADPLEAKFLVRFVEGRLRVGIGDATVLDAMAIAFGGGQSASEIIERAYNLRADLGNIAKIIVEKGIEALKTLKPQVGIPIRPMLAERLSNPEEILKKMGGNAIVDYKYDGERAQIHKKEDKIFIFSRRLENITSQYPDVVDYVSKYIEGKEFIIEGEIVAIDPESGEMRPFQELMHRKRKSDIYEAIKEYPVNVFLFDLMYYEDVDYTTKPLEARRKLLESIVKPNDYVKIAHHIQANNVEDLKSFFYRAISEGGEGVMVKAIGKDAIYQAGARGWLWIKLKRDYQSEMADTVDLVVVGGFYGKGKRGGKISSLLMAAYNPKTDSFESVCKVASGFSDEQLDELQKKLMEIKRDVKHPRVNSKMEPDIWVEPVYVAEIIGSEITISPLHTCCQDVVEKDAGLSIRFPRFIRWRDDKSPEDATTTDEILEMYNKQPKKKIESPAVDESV", "assay": "negative stain electron microscopy"}, "[3]": {"target": "T3, PCNA2 subunit of S. solfataricus PCNA (S. solfataricus, UniProt Q97Z84 1-245)", "T3 sequence": "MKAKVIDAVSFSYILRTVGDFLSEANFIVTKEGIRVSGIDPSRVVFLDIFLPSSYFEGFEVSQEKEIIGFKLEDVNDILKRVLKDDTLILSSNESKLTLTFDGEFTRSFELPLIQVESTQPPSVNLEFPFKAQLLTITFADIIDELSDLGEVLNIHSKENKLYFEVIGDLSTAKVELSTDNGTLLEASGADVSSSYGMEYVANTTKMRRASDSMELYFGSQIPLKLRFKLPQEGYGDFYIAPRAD", "assay": "cryo-EM structure"}, "[4]": {"target": "T4, PCNA1 subunit of S. solfataricus PCNA (S. solfataricus, UniProt P57766 1-249)", "T4 sequence": "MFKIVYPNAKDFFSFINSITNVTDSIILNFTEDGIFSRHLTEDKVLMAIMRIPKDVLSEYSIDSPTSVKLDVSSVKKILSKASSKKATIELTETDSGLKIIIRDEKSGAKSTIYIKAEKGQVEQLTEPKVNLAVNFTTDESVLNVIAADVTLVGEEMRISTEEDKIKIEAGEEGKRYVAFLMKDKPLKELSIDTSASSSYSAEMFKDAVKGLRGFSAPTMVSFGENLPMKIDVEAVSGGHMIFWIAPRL", "assay": "cryo-EM structure"}, "[5]": {"target": "T5, DNA ligase (Lig);PCNA1-PCNA2-PCNA3 heterotrimer (S. solfataricus;S. solfataricus, UniProt Q980T8;P57766;Q97Z84;P57765 1-601;1-249;1-245;1-244, |)", "T5 sequence 1": "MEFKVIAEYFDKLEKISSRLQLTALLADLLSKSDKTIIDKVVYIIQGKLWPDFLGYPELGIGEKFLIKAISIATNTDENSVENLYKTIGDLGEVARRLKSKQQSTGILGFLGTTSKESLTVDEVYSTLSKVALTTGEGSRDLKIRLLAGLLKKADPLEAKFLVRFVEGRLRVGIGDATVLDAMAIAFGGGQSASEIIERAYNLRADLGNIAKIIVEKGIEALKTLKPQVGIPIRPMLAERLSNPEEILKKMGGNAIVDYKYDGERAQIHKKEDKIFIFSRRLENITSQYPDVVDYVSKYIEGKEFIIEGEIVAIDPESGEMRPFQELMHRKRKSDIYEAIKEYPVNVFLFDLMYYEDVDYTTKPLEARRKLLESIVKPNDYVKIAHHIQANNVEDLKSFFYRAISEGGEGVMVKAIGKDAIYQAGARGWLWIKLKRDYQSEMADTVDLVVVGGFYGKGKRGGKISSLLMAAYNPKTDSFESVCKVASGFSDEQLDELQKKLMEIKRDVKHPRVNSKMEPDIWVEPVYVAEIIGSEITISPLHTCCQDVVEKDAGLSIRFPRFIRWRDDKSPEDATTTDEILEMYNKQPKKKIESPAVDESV", "T5 sequence 2": "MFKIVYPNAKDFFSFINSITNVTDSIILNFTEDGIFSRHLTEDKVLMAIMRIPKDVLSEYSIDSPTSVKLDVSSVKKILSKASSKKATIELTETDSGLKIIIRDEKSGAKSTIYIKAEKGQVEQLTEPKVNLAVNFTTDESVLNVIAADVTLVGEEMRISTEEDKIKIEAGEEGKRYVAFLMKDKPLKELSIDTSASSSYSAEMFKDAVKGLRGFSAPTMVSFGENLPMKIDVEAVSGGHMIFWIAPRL", "T5 sequence 3": "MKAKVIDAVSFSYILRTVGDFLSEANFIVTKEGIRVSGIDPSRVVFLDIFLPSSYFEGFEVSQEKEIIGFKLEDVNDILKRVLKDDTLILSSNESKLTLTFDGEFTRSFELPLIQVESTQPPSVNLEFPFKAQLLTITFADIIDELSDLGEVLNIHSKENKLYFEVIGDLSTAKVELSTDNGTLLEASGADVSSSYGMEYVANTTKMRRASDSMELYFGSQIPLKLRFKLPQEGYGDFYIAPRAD", "T5 sequence 4": "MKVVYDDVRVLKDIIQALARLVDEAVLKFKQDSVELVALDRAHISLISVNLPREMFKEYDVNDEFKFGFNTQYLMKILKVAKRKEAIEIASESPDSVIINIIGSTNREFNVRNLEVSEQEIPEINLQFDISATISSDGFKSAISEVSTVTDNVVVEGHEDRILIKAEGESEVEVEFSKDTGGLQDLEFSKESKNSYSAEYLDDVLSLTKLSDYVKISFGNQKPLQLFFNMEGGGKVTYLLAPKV", "assay": "cryo-EM"}, "[6]": {"target": "T5, DNA ligase (Lig);PCNA1-PCNA2-PCNA3 …", "assay": "cryo-EM", "remark": "listed apart in the source"}, "[7]": {"target": "T5, DNA ligase (Lig);PCNA1-PCNA2-PCNA3 …", "assay": "cryo-EM", "remark": "listed apart in the source"}, "[8]": {"target": "T5, DNA ligase (Lig);PCNA1-PCNA2-PCNA3 …", "assay": "gel filtration co-elution"}, "[9]": {"target": "T1, PCNA_(1–2-3) heterotrimer of S. …", "assay": "fluorescence polarisation"}, "[10]": {"target": "B1", "assay": "fluorescence polarisation"}, "[11]": {"target": "T6, PCNA1–2 heterodimer of S. solfataricus (S. solfataricus, UniProt P57766 1-249; Q97Z84 1-245)", "T6 sequence 1": "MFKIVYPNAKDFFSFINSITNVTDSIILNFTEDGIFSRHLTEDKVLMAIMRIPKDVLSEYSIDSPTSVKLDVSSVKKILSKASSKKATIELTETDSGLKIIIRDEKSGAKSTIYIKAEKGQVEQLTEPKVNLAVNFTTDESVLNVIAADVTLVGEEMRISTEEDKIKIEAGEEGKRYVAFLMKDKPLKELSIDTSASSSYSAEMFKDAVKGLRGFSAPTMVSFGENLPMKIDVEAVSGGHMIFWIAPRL", "T6 sequence 2": "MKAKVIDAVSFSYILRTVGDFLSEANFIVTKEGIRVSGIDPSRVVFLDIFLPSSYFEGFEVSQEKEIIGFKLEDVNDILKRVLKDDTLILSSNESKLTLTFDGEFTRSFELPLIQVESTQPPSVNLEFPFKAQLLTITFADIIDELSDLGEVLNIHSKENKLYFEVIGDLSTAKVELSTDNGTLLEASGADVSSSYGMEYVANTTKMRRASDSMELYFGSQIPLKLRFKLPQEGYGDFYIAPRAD", "assay": "fluorescence polarisation"}},
  "note": "Ends that are not written are not given here.",
  "data": [
    {"binder": "Lig 103/107 QI-AA mutant (enzyme, S. solfataricus) MEFKVIAEYFDKLEKISSRLQLTALLADLLSKSDKTIIDKVVYIIQGKLWPDFLGYPELGIGEKFLIKAISIATNTDENSVENLYKTIGDLGEVARRLKSKQASTGALGFLGTTSKESLTVDEVYSTLSKVALTTGEGSRDLKIRLLAGLLKKADPLEAKFLVRFVEGRLRVGIGDATVLDAMAIAFGGGQSASEIIERAYNLRADLGNIAKIIVEKGIEALKTLKPQVGIPIRPMLAERLSNPEEILKKMGGNAIVDYKYDGERAQIHKKEDKIFIFSRRLENITSQYPDVVDYVSKYIEGKEFIIEGEIVAIDPESGEMRPFQELMHRKRKSDIYEAIKEYPVNVFLFDLMYYEDVDYTTKPLEARRKLLESIVKPNDYVKIAHHIQANNVEDLKSFFYRAISEGGEGVMVKAIGKDAIYQAGARGWLWIKLKRDYQSEMADTVDLVVVGGFYGKGKRGGKISSLLMAAYNPKTDSFESVCKVASGFSDEQLDELQKKLMEIKRDVKHPRVNSKMEPDIWVEPVYVAEIIGSEITISPLHTCCQDVVEKDAGLSIRFPRFIRWRDDKSPEDATTTDEILEMYNKQPKKKIESPAVDESV", "values": [
      {"measurement": "binding result", "setting": "[1]", "result": "binds"}
    ]},
    {"binder": "B1", "values": [
      {"measurement": "binding result", "setting": "[2]", "result": "binds"},
      {"measurement": "binding result", "setting": "[3]", "result": "binds"},
      {"measurement": "binding result", "setting": "[4]", "result": "binds"}
    ]},
    {"binder": "47 bp 3'dideoxy nicked DNA (dsDNA, 3'-dideoxy terminus of upstream strand; 5'PO4 on downstream strand) DNA 1: GTATCCTCGTAGTGCAGATGCGTC DNA 2: GTCGGACTGATTCGGTAGATCTG DNA 3: CAGATCTACCGAATCAGTCCGACGACGCATCTGCACTACGAGGATAC", "values": [
      {"measurement": "binding result", "setting": "[5]", "result": "binds"}
    ]},
    {"binder": "47 bp nicked DNA, 5'-adenylated (AppDNA) (dsDNA, 5'-App (adenylated 5'PO4) on downstream strand; 3'OH at nick) DNA 1: GTATCCTCGTAGTGCAGATGCGTC DNA 2: GTCGGACTGATTCGGTAGATCTG DNA 3: CAGATCTACCGAATCAGTCCGACGACGCATCTGCACTACGAGGATAC", "values": [
      {"measurement": "binding result", "setting": "[6]", "result": "binds"}
    ]},
    {"binder": "47 bp end-joined duplex DNA (dsDNA) DNA 1: GTATCCTCGTAGTGCAGATGCGTCGTCGGACTGATTCGGTAGATCTG DNA 2: CAGATCTACCGAATCAGTCCGACGACGCATCTGCACTACGAGGATAC", "values": [
      {"measurement": "binding result", "setting": "[7]", "result": "binds"}
    ]},
    {"binder": "47 bp ligatable nicked DNA (dsDNA, 5'PO4 on downstream strand; 3'OH at nick) DNA 1: GTATCCTCGTAGTGCAGATGCGTC DNA 2: GTCGGACTGATTCGGTAGATCTG DNA 3: CAGATCTACCGAATCAGTCCGACGACGCATCTGCACTACGAGGATAC", "values": [
      {"measurement": "binding result", "setting": "[8]", "result": "binds"}
    ]},
    {"binder": "KSKQQSTGILGFLGTTS (also: 6-FAM label, position not given here)", "note": "[fluorescently labeled Lig loop peptide (17 residues, PIP motif)]", "values": [
      {"measurement": "Kd", "setting": "[9]", "result": "13.1 ± 2.5", "unit": "µM"},
      {"measurement": "Kd", "setting": "[10]", "result": "32.5 ± 6.6", "unit": "µM"},
      {"measurement": "Kd", "setting": "[11]", "result": "177 ± 74.4", "unit": "µM"}
    ]}
  ]
}
